Numbering of substitutions follows the chain as printed. Names and notes keep the numbering of the source. Where two headings read alike, the source gives them in different places.

Test [1] addresses T1, human Claudin 18.2 (CLDN18.2) (human, UniProt P56856-2 1-261).
T1 construct: whole, on cells; recombinantly expressed on CHO, HEK293, NCI-N87, NUGC4 or PANC-1 cells; also called CHO-CLDN18.2
Briefly: FACS Exp. 2, MFI ratio CHO-18.2 over CHO-18.1.

Test [2] deals with T1, human Claudin 18.2 (CLDN18.2). Briefly: FACS Exp. 1, MFI ratio CHO-18.2 over CHO-18.1.
Test [3] addresses T2, CLDN18.2 endogenously expressed on SNU620 gastric cancer cells (UniProt P56856-2 1-261, limits assumed).
T2 construct: whole, on cells; also called SU620
Briefly: FACS Exp. 3, SNU620 cells.

Test [4] addresses T1, human Claudin 18.2 (CLDN18.2). Briefly: FACS on CHO-CLDN18.2 cells.
The target is the same in test [5]. Briefly: FACS on CHO-CLDN18.2 cells. The source holds these as a separate data set.
Test [6] has the same target. In words: FACS on CHO-CLDN18.2 cells. This is another data set of the same source.
The target is the same in test [7]. In words: cell-based or functional assay.
For test [8] the target is unchanged. In words: cell-based or functional assay. This is another data set of the same source.
For test [9] the target is unchanged. In words: cell-based or functional assay. This is another data set of the same source.

B1: hz282-19 (antibody, V domains shown)
VH: QVQLQESGPGLVKPSETLSLTCTVSGFSLTSYNVYWIRQPPGKGLEWIGVIWNTGATRYNSALKSRVTISKDTSKSQVSLKLSSVTAADTAVYYCARDSAMPAIPFAYWGQGTLVTVSS
VL: DIVMTQSPSSLSASVGDRVTINCKSSQSLFGSVRQKNYLAWYQQKPGKSPKLLIYLASTRESGVPDRFSGSGSGTDFTLTISSLQPEDFAKYYCQQYYDIPWTFGGGTKVEIK
notes: humanized IgG; constant regions not specified
As for B1, the results for the “MFI_CHO-18.2/CHO-18.1 (@30 ug/ml)” value in test [1] and in test [2] were 1010 and 812, respectively. The “MFI_SNU620 (@30 ug/ml)” value in test [3] amounted to 1310 MFI.

B2: hz282-11 (antibody, V domains shown)
VH: B1 VH
VL: B1 VL with V3Q, N22T, S49A, D66S, K91T
notes: humanized IgG; constant regions not specified; also called humanized 282A12(T62A) (hz282-11)
Broadly, the EC50 is the concentration giving half of the maximal effect. Low values mean greater potency, high ones weaker potency. For the molecule B2, the values for the EC50 in test [4], in [5] and in test [6] were 3.17 nM, 2.75 nM and 3.68 nM, respectively. Besides, the “MFI_CHO-18.2/CHO-18.1 (@30 ug/ml)” value worked out at 2000 in test [1] and 1190 in test [2]. The “MFI_SNU620 (@30 ug/ml)” value in test [3] was 1340 MFI.

B3: hz282-10 (antibody, V domains shown)
VH: B1 VH with S76N
VL: B1 VL with V3Q, N22T, S49A, D66S, K91T
notes: as for B1
With B3, the “MFI_CHO-18.2/CHO-18.1 (@30 ug/ml)” value in [1] is 1500; in test [2] it was 808. Besides, the “MFI_SNU620 (@30 ug/ml)” value in test [3] was determined as 1310 MFI.

B4: hz282-12 (antibody, V domains shown)
VH: B1 VH with S25A
VL: B1 VL with V3Q, N22T, S49A, D66S, K91T
notes: as for B1
Regarding B4, the “MFI_CHO-18.2/CHO-18.1 (@30 ug/ml)” value came out at 1940 in test [1] and 1230 in [2]. For the same molecule, the “MFI_SNU620 (@30 ug/ml)” value in test [3] was 1220 MFI.

B5: hz282-15 (antibody, V domains shown)
VH: B1 VH
VL: B1 VL with V3Q, N22T
notes: as for B1
B5: the “MFI_CHO-18.2/CHO-18.1 (@30 ug/ml)” value was 2020 in [1] and 1380 in [2]. Moreover, in test [3], the “MFI_SNU620 (@30 ug/ml)” value was found to be 1230 MFI.

B6: hz282-8 (antibody, V domains shown)
VH: B1 VH with S25A
VL: B1 VL with S9D, S12A, A13V, V15L, D17E, V19A, K48Q, P86A, F89V
notes: as for B1
Regarding B6, the figures for the “MFI_CHO-18.2/CHO-18.1 (@30 ug/ml)” value in [1] and in test [2] were 1610 and 960, respectively. The “MFI_SNU620 (@30 ug/ml)” value in test [3] came out at 1190 MFI.

B7: hz282-4 (antibody, V domains shown)
VH: B1 VH with S25A
VL: DIVMTQSPDSLAVSLGERATINCKSSQSLFGSVRQKNYLAWYQQKPGQPPKLLIYLASTRESGVPDRFSGSGSGTDFTLTISSLQAEDVAVYYCQQYYDIPWTFGGGTKVEIK
notes: as for B1
For the molecule B7, the “MFI_CHO-18.2/CHO-18.1 (@30 ug/ml)” value in test [1] stood at 2540; in test [2] it was 1240. Besides, in test [3], the “MFI_SNU620 (@30 ug/ml)” value is 1080 MFI.

B8: hz282-20 (antibody, V domains shown)
VH: B1 VH with S25A
VL: B1 VL
notes: as for B1
B8: the entries for the “MFI_CHO-18.2/CHO-18.1 (@30 ug/ml)” value in test [1] and in [2] were 987 and 981, respectively. Besides, the “MFI_SNU620 (@30 ug/ml)” value in test [3] worked out at 1240 MFI.

B9: hz282-3 (antibody, V domains shown)
VH: B1 VH
VL: B7 VL
notes: as for B1
For B9, the figures for the “MFI_CHO-18.2/CHO-18.1 (@30 ug/ml)” value in [1] and in test [2] were 1670 and 1100, respectively. In [3], the “MFI_SNU620 (@30 ug/ml)” value was 1150 MFI.

B10: 413H9F8-cp1 (antibody, V domains shown)
VH: EVQLVESGGGLVQPGGSLRLSCAASGFTFSSFGMHWVRQAPGKGLEWVSYISSGSSPIYYVDKLKGRFTISRDNAKNSLYLQMNSLRAEDTAVYYCARAGYAVRNALDYWGQGTLVTVSS
VL: EIVMTQSPPTLSLSPGERVTLSCKSSQSLLNVGNQKNYLAWYQQKPGQAPRLLIYGASTRESGIPARFSGSGSGTDFTLTISSLQPEDFAVYYCQNDLFYPLTFGGGTKVEIK
notes: as for B1
As to B10, the EC50 in [6] was determined as 2.6 nM. In addition, in test [7], the “% specific cytotoxicity @ 6.67 nM, NUGC4-CLDN18.2, PBMC” value (“% specific cytotoxicity @ 6.67 nM” for short) is 31.5% and the “ADCC EC50, NUGC4-CLDN18.2, PBMC” value came out at 7.18 nM. Moreover, in test [8], the “% ADCC @ 6.67 nM, NCI-N87-CLDN18.2, FcR-TANK” value (“% ADCC @ 6.67 nM” for short) amounted to 13.3% and the “ADCC EC50, NCI-N87-CLDN18.2, FcR-TANK” value stood at 0.44 nM. The “CDC EC50, human serum, CHO-CLDN18.2” value in test [9] is 1.66 nM.

B11: 364D1A7-H1L1 (antibody, V domains shown)
VH: EVQLVESGGGLVQPGGSLRLSCAASGFTFSSFGMHWVRQAPGKGLEWVSYISSGSGSIYYADTVKGRFTISRDNAKNSLYLQMNSLRAEDTAVYYCATSYYYGNALEYWGQGTTVTVSS
VL: DIVMTQSPDSLAVSLGERATINCKSSQSLFNVGNQKNYLTWYQQKPGQPPKLLIYWASTRKSGVPDRFSGSGSGTDFTLTISSLQAEDVAVYYCQNVYSYPLTFGGGTKVEIK
notes: as for B1
B11 had an EC50 in [5] of 3.5 nM. Further, in test [7], the “% specific cytotoxicity @ 6.67 nM” value was found to be 26.7% and the “ADCC EC50, NUGC4-CLDN18.2, PBMC” value was 13.3 nM. Further, in test [8], the “% ADCC @ 6.67 nM” value was 13.5% and the “ADCC EC50, NCI-N87-CLDN18.2, FcR-TANK” value was found to be 0.4 nM. The “CDC EC50, human serum, CHO-CLDN18.2” value in test [9] is 1.48 nM.

B12: 413H9F8-H1L1 (antibody, V domains shown)
VH: B10 VH
VL: B11 VL with F30L, T40A, W56G, K61E, V97D, Y98L, S99F
notes: as for B1
The molecule B12 registered an EC50 in test [4] of 2.31 nM. For the same molecule, in test [7], the “% specific cytotoxicity @ 6.67 nM” value is 27% and the “ADCC EC50, NUGC4-CLDN18.2, PBMC” value was 8.98 nM. Also, in test [8], the “% ADCC @ 6.67 nM” value came out at 15.1% and the “ADCC EC50, NCI-N87-CLDN18.2, FcR-TANK” value worked out at 0.47 nM. Besides, the “CDC EC50, human serum, CHO-CLDN18.2” value in test [9] came to 0.78 nM.

B13: 364D1A7-H3L1 (antibody, V domains shown)
VH: B11 VH with S49A, I70L, A75P
VL: B11 VL
notes: as for B1
In the case of B13, a half-maximal effect in test [5] (EC50) was put at 4.22 nM. Further, in [7], the “% specific cytotoxicity @ 6.67 nM” value worked out at 26.2% and the “ADCC EC50, NUGC4-CLDN18.2, PBMC” value worked out at 11.3 nM. Further, in [8], the “% ADCC @ 6.67 nM” value was determined as 10.8% and the “ADCC EC50, NCI-N87-CLDN18.2, FcR-TANK” value was 0.41 nM. Further, the “CDC EC50, human serum, CHO-CLDN18.2” value in test [9] stood at 1.28 nM.

B14: 413H9F8-H2L1 (antibody, V domains shown)
VH: B10 VH with S49A
VL: B11 VL with F30L, T40A, W56G, K61E, V97D, Y98L, S99F
notes: as for B1
For B14, the EC50 in test [4] was 2.43 nM. Also, in test [7], the “% specific cytotoxicity @ 6.67 nM” value turned out to be 34.3% and the “ADCC EC50, NUGC4-CLDN18.2, PBMC” value stood at 5.97 nM. Further, in test [8], the “% ADCC @ 6.67 nM” value stood at 14.1% and the “ADCC EC50, NCI-N87-CLDN18.2, FcR-TANK” value was 0.31 nM. Moreover, the “CDC EC50, human serum, CHO-CLDN18.2” value in test [9] came out at 1.06 nM.

B15: 413H9F8-H1L3 (antibody, V domains shown)
VH: B10 VH
VL: B11 VL with F30L, T40A, W56G, K61E, S69I, Y93F, V97D, Y98L, S99F
notes: as for B1
In turn, B15 gave an EC50 in test [4] of 2.38 nM. In addition, in [7], the “% specific cytotoxicity @ 6.67 nM” value is 34.6% and the “ADCC EC50, NUGC4-CLDN18.2, PBMC” value came out at 4.38 nM. For the same molecule, in test [8], the “% ADCC @ 6.67 nM” value amounted to 16.3% and the “ADCC EC50, NCI-N87-CLDN18.2, FcR-TANK” value came to 0.37 nM. The “CDC EC50, human serum, CHO-CLDN18.2” value in test [9] was found to be 1.07 nM.

The values above are taken from US20210380680A1 (ZLLP, published 2021).
